In US20090111104A1, “Method for Monitoring Hydrolytic Activity” (Fluorotechnics Pty Limited, priority 2005, published 2009):

How the values were obtained:
Assay type in all cases: biochemical, bovine
[1] = biological target: T1, BSA (Bos taurus, UniProt P02769); assay: Tryptic digestion of BSA followed with Nile Red; details: Nile Red reporter dye
T1 construct: purchased Sigma-Aldrich A3059
Procedure: • As per Example 2 above. • Nile Red (20 mM in ethanol, Sigma-Aldrich, 73189) diluted to 100-fold in 50 mM bicine
As per Example 2 except the Fluorostar plate reader was set to 520 nm excitation and 630 (±10 nm) bandpass emission filter.

[2] = biological target: T2, carbonic anhydrase (CA) (Bos taurus, UniProt P00921); assay: Real-time monitoring of tryptic digestion of carbonic anhydrase using epicocconone with and without SDS
T2 construct: purchased Sigma-Aldrich C7025
T2 sequence (P00921 whole entry): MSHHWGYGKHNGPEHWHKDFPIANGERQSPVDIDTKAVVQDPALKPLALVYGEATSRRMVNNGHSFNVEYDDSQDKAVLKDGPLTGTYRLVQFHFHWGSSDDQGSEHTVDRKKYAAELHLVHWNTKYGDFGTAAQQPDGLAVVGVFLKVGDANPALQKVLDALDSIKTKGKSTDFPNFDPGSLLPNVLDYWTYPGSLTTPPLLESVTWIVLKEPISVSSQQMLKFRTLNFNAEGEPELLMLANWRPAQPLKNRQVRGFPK
Procedure: • 1 Trypsin digestion was carried out in bicine buffer (pH 8.4) • 2 Protein samples were prepared in 10 mg/mL in 100 mM bicine buffer. • 3 One hundred microliter of the protein sample was used for trypsin digestion.
• 4. The 100 μL of protein samples was reduced by adding 1 μL of 10% SDS and 5 μL of DTT stock for 10 min at 80° C. • 5. Another sample was reduced with only 5 μL of DTT stock for 10 min at 80° C. (no SDS) • 3 The samples were alkylated by adding 4 μL of the iodoacetamide stock at room temperature for 45 min-1 hr. • 4 The remaining iodoacetamide of the samples were neutralised by adding 20 μL of the DTT at room temp for 45 min-1 hr. […] Fluorescence development was monitored in real time every 2 minutes up to 400 minutes using FluoStar (Ex/Em=540±10/[…]±10). • 16. […]
Progress curves were fitted as per Example 6. […] In the presence of a non-denaturing quantity of detergent (open squares) carbonic anhydrase (CA) becomes more hydrophobic and has an increase in fluorescence when exposed to a fluorophore that is sensitive to its environment such as epicocconone. Upon addition of trypsin, the fluorescence drops as per Example 6 but in the sample with no SDS (inverted triangles) the change in fluorescence is reduced by more than 50% compared to in the presence of SDS (open circles). […]

[3] = biological target: T1, BSA; assay: Tryptic digestion of BSA followed with SYPROorange; details: SYPROorange reporter dye
Procedure: • As per Example 2 above. • SYPROorange (24 mM in DMSO, Molecular Probes) diluted to 100-fold in 50 mM bicine
As per Example 2 except the Fluorostar plate reader was set to 480 nm excitation and 600 (±10 nm) bandpass emission filter.

[4] = biological target: T1, BSA; assay: Real-time monitoring of BSA proteolysis with different fluorophores in the presence of detergent (Example 7); details: method of example 7, real-time with fluorophore and SDS
Procedure: • 1 Trypsin and papain digestion was carried out in bicine buffer at pH 8.4 and pH 7.0, respectively. • 2 BSA was prepared in 10 mg/mL in 100 mM bicine buffer. • 3 One hundred microliter of the BSA sample was used for trypsin and papain digestion.
7.2.2 Real-Time Monitoring of Trypsin Digestion with Fluorophores in the Presence of a Detergent • 1. The reduced and denatured BSA sample was diluted 10-fold in 100 mM bicine buffer (25 μL+225 μL bicine buffer). • 2. One hundred microliter of the sample (step 1) was added to a well in a 96-well microtiter plate. Controls included a bicine-based digestion buffer, a trypsin sample or papain only and an undigested BSA sample (no trypsin or no papain). The assay consists of a 4-well sample set for one fluorophore, e.g. SYPROorange. Three sets of samples were prepared in the same manners for the remaining fluorophores, e.g. Nile red, epicocconone and […]. • 3. SYPROorange stock solution was diluted 5000-fold in the bicine buffer (pH 8.4). Nile red and epicocconone and stock solutions were diluted 100-fold in the 100 mM bicine (pH 8.5). ANS was diluted 100-fold in the bicine buffer (pH 7.0). • 4. […] Fluorescence development was monitored in real time every 2 minutes up to 400 minutes using FluoStar (Ex/Em=485/600±10 for SYPROorange; 540±10/630±10 for epicocconone and Nile red; 355/460 for ANS). […]

[5] = biological target: T1, BSA; assay: SDS-PAGE validation of BSA proteolysis in the presence of different fluorophores (Example 7); details: after 120 minutes
Text: The normalised data were used for Prism analysis for obtaining the rate constants. In each case, the protein with fluorophore (open squares) is fitted to a single phase exponential decay (Y=span*exp(−kX)+plateau) and the value for k used as the fixed value for k1 in a two phase exponential decay (Y=span1*exp(−k1X)+span2*exp(−k2X)+plateau) for the protein plus papain (open circles). Through this method it was possible to measure the rate constants for hydrolysis and predict the time point for complete hydrolysis. […] It can be seen from this figure that the bands associated with the protein have disappeared after 120 minutes and that only a faint band for residual papain or trypsin can be seen. In some cases there are also some larger peptide fragments remaining after digestion that are resistant to further hydrolysis.

T1 sequence (P02769 25-607): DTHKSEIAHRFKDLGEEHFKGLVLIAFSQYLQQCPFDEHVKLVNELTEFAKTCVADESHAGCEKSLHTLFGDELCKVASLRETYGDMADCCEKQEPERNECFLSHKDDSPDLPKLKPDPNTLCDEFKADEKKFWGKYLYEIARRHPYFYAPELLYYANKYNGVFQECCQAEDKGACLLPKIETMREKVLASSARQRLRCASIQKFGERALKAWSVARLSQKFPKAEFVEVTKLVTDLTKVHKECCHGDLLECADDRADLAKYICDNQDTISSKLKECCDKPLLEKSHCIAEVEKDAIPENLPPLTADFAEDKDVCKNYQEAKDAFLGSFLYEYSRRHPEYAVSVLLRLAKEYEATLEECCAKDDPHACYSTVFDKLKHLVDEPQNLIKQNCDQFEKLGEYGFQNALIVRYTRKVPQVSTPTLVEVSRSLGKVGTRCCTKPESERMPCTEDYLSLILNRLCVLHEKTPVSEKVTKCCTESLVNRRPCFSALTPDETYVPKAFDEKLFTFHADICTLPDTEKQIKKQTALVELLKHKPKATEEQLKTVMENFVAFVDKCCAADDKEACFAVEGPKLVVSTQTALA

B1: trypsin: Proteomics grade trypsin protease, Sigma-Aldrich T6567 (protein, UniProt P00761 9-231, looked up)
Trypsin: IVGGYTCAANSIPYQVSLNSGSHFCGGSLINSQWVVSAAHCYKSRIQVRLGEHNIDVLEGNEQFINAAKIITHPNFNGNTLDNDIMLIKLSSPATLNSRVATVSLPRSCAAAGTECLISGWGNTKSSGSSYPSLLQCLKAPVLSDSSCKSSYPGQITGNMICVGFLEGGKDSCQGDSGGPVVCNGQLQGIVSWGYGCAQKNKPGVYTKVCNYVNWIQQTIAAN
apparent first order rate constant for tryptic digestion [1]: 0.1302 min⁻¹ | observed rate constant ([2]; with SDS): 0.025 min⁻¹ | observed rate constant ([2]; without SDS): 0.025 min⁻¹ | apparent first order rate constant for tryptic digestion [3]: 0.1466 min⁻¹ | pseudo-first order rate constant for digestion of BSA [4]: 0.1 to 0.2 min⁻¹ | digestion of BSA by SDS-PAGE [5]: complete digestion
